Experimental data reported in patent US20230044037A1 (INTERVET, published 2023).

Biological target: T1, canine IL-4 receptor alpha (IL-4Rα) on DH82 cells (canine)
T1 construct: Endogenous receptor of the DH82 cells in the STAT-6 assay; also called canine IL-4Rα; IL-4R alpha
T1 chain: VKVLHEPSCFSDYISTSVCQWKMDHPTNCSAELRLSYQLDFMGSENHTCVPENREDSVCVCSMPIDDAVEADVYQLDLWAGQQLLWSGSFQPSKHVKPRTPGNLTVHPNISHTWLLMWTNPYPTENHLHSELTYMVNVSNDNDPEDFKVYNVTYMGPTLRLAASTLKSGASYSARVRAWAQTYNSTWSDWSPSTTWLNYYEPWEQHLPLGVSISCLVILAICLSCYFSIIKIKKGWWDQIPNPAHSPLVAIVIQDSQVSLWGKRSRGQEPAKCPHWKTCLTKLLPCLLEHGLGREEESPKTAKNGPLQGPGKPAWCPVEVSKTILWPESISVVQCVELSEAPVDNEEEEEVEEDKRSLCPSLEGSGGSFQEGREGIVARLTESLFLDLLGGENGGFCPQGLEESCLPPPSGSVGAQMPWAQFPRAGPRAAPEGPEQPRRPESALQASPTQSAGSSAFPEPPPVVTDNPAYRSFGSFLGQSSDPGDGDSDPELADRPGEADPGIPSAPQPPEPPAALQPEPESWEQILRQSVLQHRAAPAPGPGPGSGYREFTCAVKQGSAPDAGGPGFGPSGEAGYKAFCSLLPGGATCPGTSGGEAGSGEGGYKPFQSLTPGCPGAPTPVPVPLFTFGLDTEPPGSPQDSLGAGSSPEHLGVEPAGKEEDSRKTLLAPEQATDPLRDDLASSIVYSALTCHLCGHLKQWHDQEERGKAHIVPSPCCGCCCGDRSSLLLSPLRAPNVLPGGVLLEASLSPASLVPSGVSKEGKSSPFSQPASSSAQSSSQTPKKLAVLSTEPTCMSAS
Assay: told from inhibition of IL-4- and IL-13-mediated STAT-6 phosphorylation in DH82 cells (AlphaLISA)

binding result: binds
B1: c152H11-H3L3 (c152H11VL3-cCLk-s/c152H11VH3-cIgG-Bm) (antibody, V domains shown)
VH: EVQLVESGGDLVKPGGSLRLSCAASGFTFSSYGMSWVRQAPDKRLQWVATISRGGDYTYYPDSVKGRFTISRDNAKNTLYLQMNSLRAEDTAMYYCARGTLNNRGFASWGQGTLVTVSS
VL: EIVMTQSPASLSLSQEEKVTITCKASQNVGTNVAWYQQKPGQAPKLLIYSASYRYSGLPDRFSGSGSGTDFSFTISSLEPEDVAEFFCQQYNSYPYTFGQGTKLEIKR
notes: Caninized anti-canine IL-4R alpha antibody: VH3 heavy chain on modified canine IgG-B (IgG-Bm), kappa light chain L3
